{"source": "patent US11578136B2", "about": "“Compositions and methods for treating cancer” (INNATE PHARMA, priority 2017, dated 2023)", "key": {"[1]": {"biological_target": "T1, human Ramos lymphoma cells (CD39) (Homo sapiens, UniProt P49961)", "T1 construct": "host or cells: Ramos human lymphoma cells", "T1 sequence (P49961 1-510)": "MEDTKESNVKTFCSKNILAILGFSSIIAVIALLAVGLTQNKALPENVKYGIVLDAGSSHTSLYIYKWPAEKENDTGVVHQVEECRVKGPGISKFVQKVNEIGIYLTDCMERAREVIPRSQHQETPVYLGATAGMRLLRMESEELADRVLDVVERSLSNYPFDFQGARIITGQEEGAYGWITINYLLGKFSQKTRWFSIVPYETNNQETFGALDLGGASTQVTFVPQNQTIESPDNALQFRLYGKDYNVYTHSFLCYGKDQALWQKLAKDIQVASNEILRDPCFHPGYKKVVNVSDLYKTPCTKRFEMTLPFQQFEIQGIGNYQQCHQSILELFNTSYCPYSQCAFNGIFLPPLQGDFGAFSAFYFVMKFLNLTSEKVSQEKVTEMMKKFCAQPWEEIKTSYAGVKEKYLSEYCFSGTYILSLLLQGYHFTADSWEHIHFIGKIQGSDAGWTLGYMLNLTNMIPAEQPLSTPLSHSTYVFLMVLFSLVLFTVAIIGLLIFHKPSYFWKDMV", "assay": "Antibody titration on Ramos cells by flow cytometry", "type": "binding", "settings": "result in words", "experimental": "(§1) Antibody I-394 was tested in two repeated experiments for binding to CHO cells expressing human CD39, CHO cells expressing cynomolgus (Macaca fascicularis) CD39, CHO cells expressing murine CD39, and human Ramos lymphoma cells (ATCC™, reference CRL-1596). Cells were incubated with various concentration of unlabeled anti-CD39 antibody from 30 μg/ml to 5×10^−4 μg/ml, for 30 minutes at 4° C. After washes, cells were incubated with Goat anti-mouse H+L labeled secondary antibody for 30 min at 4° C."}, "[2]": {"tested_on": "CHO cells expressing cynomolgus (Macaca fascicularis) CD39", "assay": "Antibody titration on CHO-cyCD39 by flow cytometry", "type": "binding", "settings": "result in words", "experimental": "as §1"}, "[3]": {"biological_target": "T2, CHO cells expressing murine CD39 (Mus musculus, UniProt P55772)", "T2 construct": "expressed in transfected cells; host or cells: CHO cells", "T2 sequence (P55772 1-510)": "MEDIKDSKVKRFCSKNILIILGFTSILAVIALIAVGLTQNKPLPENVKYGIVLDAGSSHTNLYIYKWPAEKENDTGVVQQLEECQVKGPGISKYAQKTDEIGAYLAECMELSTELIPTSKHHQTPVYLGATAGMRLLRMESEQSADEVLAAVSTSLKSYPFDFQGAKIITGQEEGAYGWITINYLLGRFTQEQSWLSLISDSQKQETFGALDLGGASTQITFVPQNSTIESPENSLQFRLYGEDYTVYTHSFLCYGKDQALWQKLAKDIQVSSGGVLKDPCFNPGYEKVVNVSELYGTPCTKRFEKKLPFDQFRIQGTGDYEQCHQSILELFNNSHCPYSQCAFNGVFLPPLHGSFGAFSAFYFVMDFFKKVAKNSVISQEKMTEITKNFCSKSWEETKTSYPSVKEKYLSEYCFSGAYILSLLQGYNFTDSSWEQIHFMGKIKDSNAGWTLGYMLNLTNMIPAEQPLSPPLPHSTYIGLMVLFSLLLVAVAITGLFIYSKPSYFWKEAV", "assay": "Antibody titration on CHO-moCD39 by flow cytometry", "type": "binding", "settings": "result in words", "experimental": "as §1"}, "[4]": {"biological_target": "T3, Human CD39-L1 (NTPDase2, ENTPD2) (Homo sapiens, UniProt Q9Y5L3)", "T3 sequence (Q9Y5L3 1-472 isoform Q9Y5L3-2)": "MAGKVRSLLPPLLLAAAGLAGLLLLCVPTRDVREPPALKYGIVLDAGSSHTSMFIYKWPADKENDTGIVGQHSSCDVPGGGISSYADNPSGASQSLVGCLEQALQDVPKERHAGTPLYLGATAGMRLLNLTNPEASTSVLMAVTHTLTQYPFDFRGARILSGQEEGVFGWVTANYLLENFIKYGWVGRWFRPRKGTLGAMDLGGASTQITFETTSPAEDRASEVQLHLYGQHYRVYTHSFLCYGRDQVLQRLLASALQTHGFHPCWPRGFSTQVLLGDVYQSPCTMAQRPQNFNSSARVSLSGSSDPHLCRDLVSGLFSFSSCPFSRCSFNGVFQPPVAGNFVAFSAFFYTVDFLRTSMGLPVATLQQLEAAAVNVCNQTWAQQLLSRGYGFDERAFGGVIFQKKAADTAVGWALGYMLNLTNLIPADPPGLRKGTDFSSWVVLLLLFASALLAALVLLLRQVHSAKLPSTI", "assay": "ELISA titration on CD39-L1", "type": "binding", "settings": "result in words", "experimental": "Antibody I-394 was tested for binding to recombinant human CD39 isoforms (Rec-huCD39 isoforms) having amino acid sequences shown below were coated in 96-well plate in PBS 1× at 500 ng/ml or 1 μg/ml at 4° C. overnight. Wells were washed in TBS Tween 20, and further saturated 2H at RT in TBS Blocking buffer. Dose range concentration of primary antibody was incubated in TBS blocking buffer for 2 h at RT. Wells were washed in TBS Tween 20. […] Optical density was measured on Enspire™ at OD=450."}, "allogenic CD4 T cells": {"tested_on": "allogenic CD4 T cells", "assay": "Mixed lymphocytes reaction (MLR) with ATP-activated DC", "type": "cell-based, human", "settings": "MoDC activated with ATP plus antibody; 5 days", "experimental": "Briefly, human monocytes were purified from human healthy blood and differentiated into MoDC in presence of GM-CSF and IL-4 during 6 days. Then MoDC were activated in presence of ATP (Sigma, 0.25-1 mM) during 24 hours and DC activation were assessed by analyzing CD80, CD83 and HLA-DR expression by flow cytometry. In some cases, MoDC were preincubated during 1 hours in presence of CD39 inhibitor: […] (Tocris, 250 μM), CD73 inhibitor: APCP (Tocris 50 μM), anti-CD39 blocking antibody I-394 or BY40 (for BY40 see WO2009/095478), or anti-CD73 blocking antibodies. LPS (Invivogen, 10 ng/ml) was used as positive control. To assess resulting effect of ATP-mediated DC activation on CD4 T cells activation, ATP-activated DC were washed and then incubated with allogenic CD4 T cells (ratio 1 MoDC/4 T cells) for a mixed lymphocytes reaction (MLR) during 5 days. T cells activation and proliferation were analyzed through CD25 expression and Cell Trace Violet dilution by flow cytometry (FIG. 8)."}}}
{"substance": "I-394: anti-CD39 antibody, VH SEQ ID NO: 6, VL SEQ ID NO: 7; human IgG1 Fc with L234A/L235E/G237A/A330S/P331S", "values": [{"measurement": "binding to Ramos lymphoma cells", "setting": "[1]", "result": "bound"}, {"measurement": "binding to cells expressing cynomolgus CD39 (CHO-cyCD39)", "setting": "[2]", "result": "bound"}, {"measurement": "binding to cells expressing murine CD39 (CHO-moCD39)", "setting": "[3]", "result": "not"}, {"measurement": "binding to CD39-L1 in ELISA", "setting": "[4]", "result": "not"}, {"measurement": "T cells proliferation and activation in MLR (CD25 expression, Cell Trace Violet dilution)", "setting": "allogenic CD4 T cells", "result": "higher T cells proliferation and activation"}]}
